Assay results: publication PMC12463876, “AI-assisted design of ligands for lipocalin-2” (Frontiers in Immunology, 2025)

Molecular target: T1, Recombinant human lipocalin-2 (LCN2) (human, UniProt P80188 21-198)
T1 construct: Lipocalin-2 (LCN2), human, recombinant; neither is said to be the construct used; also called neutrophil gelatinase-associated lipocalin; siderocalin; source: produced and purified by GenScript
Experiment: SPR; MinP-2 immobilised by amine coupling on a CM5 chip (Biacore 8K); LCN2 injected at 7.8, 15.6, 31.2, 62.5 and 125 nM, 30 uL/min, contact 120 s, dissociation 600 s; 25 °C; 1:1 model
Details: both partners purified

T1 sequence (P80188 21-198): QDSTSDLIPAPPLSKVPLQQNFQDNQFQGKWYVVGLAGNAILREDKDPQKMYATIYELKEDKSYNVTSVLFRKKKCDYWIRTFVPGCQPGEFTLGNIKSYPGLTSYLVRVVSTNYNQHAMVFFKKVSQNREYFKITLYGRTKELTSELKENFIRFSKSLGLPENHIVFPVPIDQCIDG

Kd: 4.2 nM
B1: MinP-2 (designed binder)
chain: MSKATVYDVSTGKTYEVSLEDAKKLASYAVYEGGYPLRISVAPEDTKAILDAIKNTSKEKAEEGKKLLEELN
notes: de novo miniprotein (RFdiffusion, ProteinMPNN) designed against LCN2; Cloned into pET30b with a Twin-Strep tag; also called MiniP-2; source: E. coli BL21 (DE3) pLysS, purified (Strep-Tactin XT magnetic beads, dialysis)
